In patent US20210347873A1 (SHANGHAI PHARMAEXPLORER, published 2021):
Residue numbers refer to the chain shown, from its start.

T1: human APRIL protein (human, UniProt O75888 105-250, limits assumed)
T1 construct: Bought protein; also called recombinant APRIL protein
T1 sequence (looked up): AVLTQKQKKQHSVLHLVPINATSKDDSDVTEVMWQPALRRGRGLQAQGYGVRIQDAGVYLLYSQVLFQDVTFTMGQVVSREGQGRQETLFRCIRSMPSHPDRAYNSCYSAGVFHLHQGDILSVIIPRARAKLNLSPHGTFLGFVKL

T2: cynomolgus BLyS (full length, arginine to histidine at position 132) on CHO-K1 cells (cynomolgus, UniProt Q9Y275 1-285 (human entry))
T2 construct: also called cyno BLyS; CHO-K1 cynoBLyS
T2 chain: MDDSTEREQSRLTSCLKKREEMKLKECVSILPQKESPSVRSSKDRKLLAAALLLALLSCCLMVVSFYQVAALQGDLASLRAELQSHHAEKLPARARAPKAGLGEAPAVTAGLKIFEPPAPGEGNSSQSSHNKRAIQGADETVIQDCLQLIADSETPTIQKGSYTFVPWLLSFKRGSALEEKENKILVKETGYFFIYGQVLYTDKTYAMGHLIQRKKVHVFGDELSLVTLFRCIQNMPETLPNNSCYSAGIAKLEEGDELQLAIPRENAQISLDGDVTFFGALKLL

B1: 97A3C2H4 (antibody, V domains shown)
VH: EVKLVESGGGLVQPGGSLKLSCAASGFTFSTYTMSWVRQTPEKRLEWVAYISYGGGSTSYPDTVKGRFTISRDNAKNTLYLQMSSLKSEDTAIYYCTRHVTVVENSMDYWGQGTSVTVSS
VL: DILLTQSPDILSVSPGERVSFSCRASQSIGTSIHWYQQRTNGSPRLLIKYVSESFSGTPSRFSGSGSGTAFTLTINSVESEDIADYYCQQTHSWPWTFGGGTKLEIK
notes: Mouse hybridoma antibody purified on Protein G
B2: L9G7 (antibody, human IgG1, V domains shown)
VH: QIQLVQSGAEVKKPGASVKVSCKASGYTFTSYGISWVRQAPGQGLEWMGWISAYNGNTNYAQKLQGRVTMTTDTSTSTAYMELRSLRSDDTAVYYCARTYYDILTGYYYYGMDVWGQGTTVTVSS
VL: EIVLTQSPGTLSLSPGERATLSCRTSQSVDTYLAWYQQKPGQAPRLLIYDASNRATGIPARFSGSGSGTDFTLTISSLEPEDFAVYYCQQRSNWPLTFGGGTKVEIK
B3: 111D10D6G3 (antibody, V domains shown)
VH: QVQLQQPGAELVKPGASVKMSCKASGYTFTRHWITWVKQRPGQGLEWIGDIFPGSGSINYNEKFKSEATLTVEKSSSTAYMQLSSLTSEDSAVYYCARGDVDVWGTGTTVTVSS
VL: DIQMTQSPSSLSASLGERVSLTCRASQEIRGYLSWLQQKPNGTIKRLIYAASTLDSGVPKRFSATRSGSDFSLTISSLESEDFADYYCLQYASYPFTFGSGTKLEIK
notes: as for B1
B4: L1D12 (antibody, human IgG1, V domains shown)
VH: QVQLVQSGGGLVQPGGSLRLSCAASGFTVSSNYMSWVRQAPGKGLEWVSVIYSGGSTYYADSVKGRFTISRDNSKNTLYLQMNSLRAEDTAVYYCARGFHDILTGYGMDVWGQGTTVTVSS
VL: SSELTQDPAVSVALGQTVRITCQGDSLRNYYAGWYQQKPGQAPVLVIYGKNNRPSGIPDRFSGSSSGNTASLTITGTQAEDEADYYCSSRDNSGTHLVEFGGGTKLTVL
notes: also called LID12
B5: 8E7D9C7F5 (antibody, V domains shown)
VH: QVQLQQSGVELARPGASVKLSCKASGYTFTSYGISWVKQRTGQALEWIGEIYPRSGNTYYNEKFKGKATLTADKSSSTAYMELRSLTSEDSAVYFCARSGPITTLVATDYGMDYWGQGTSVTVSS
VL: DIVLTQSPASLAVSLGQRATISCRASKSVSTSSYSYMHWYQQKPGQPPKLLIKFASNLESGVPARFSGSGSGTDFTLNIHPVEEEDAATYYCQHSREFPYTFGGGTKLEIK
notes: Mouse hybridoma monoclonal antibody purified on Protein G
B6: 97A3C2H4 (antibody, V domains shown)
VH: B1 VH
VL: B1 VL
notes: as for B5
B7: 2-1G11 (antibody, V domains shown)
VH: EVQLVESRGGVVQPGRSLRLSCAASGFTFSSYGMHWVRQAPGKGLEWVAVISYDGSNKYYADSVKGRFTISRDNSKNTLYLQMNSLRAEDAAVYYCARDRVDILTGYSIYGMDVWGQGTTVTVSS
VL: B2 VL with L4M, G9A, T25A, D30S, T31S, N53K
notes: From a human naive scFv phage library; also called human BLyS antibody 2-1G11
B8: L9G7 (antibody, V domains shown)
VH: B2 VH
VL: B2 VL
notes: From a human naive scFv phage library; also called human BLyS antibody L9G7
B9: 111D10D6G3 (antibody, V domains shown)
VH: B3 VH
VL: B3 VL
notes: as for B5
B10: L1D12 (antibody, V domains shown)
VH: B4 VH
VL: B4 VL
notes: From a human naive scFv phage library; also called human BLyS antibody L1D12; LID12

Target: T1, human APRIL protein
Assay: ELISA, coated APRIL; antibody 0.0213 nM
How it was run: (§1)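 Read-out is A450 after TMB development (5 min, RT) and HCl stop, reporting OD values for BLyS antibodies bound to plate-coated human APRIL (1.0 μg/mL). Antibody and HRP-labelled secondary antibody each incubated 1 h at 37 °C; human IgG served as control.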

How did the OD450 nm turn out when mIgG Control (antibody) was run?
Its OD450 nm is 0.0537.

With hIgG Control (antibody) as the molecule, how does the OD450 nm read?
The OD450 nm was 0.0804.

B1 was tested. Which OD450 nm did it give?
The OD450 nm was 0.0559.

For B2, which OD450 nm is on record?
Its OD450 nm is 0.0777.

For B3, which OD450 nm is on record?
The OD450 nm was 0.0549.

How did the OD450 nm turn out when B4 was run?
Its OD450 nm is 0.0854.

Target: T3, human BLyS (full length, arginine to histidine at position 132) on CHO-K1 cells (human, UniProt Q9Y275 1-285)
T3 construct: also called hBLyS; CHO-K1 hBLyS
Assay: flow cytometry, CHO-K1 hBLyS cells, antibody 0.00427 nM

T3 sequence (Q9Y275 whole entry R130H): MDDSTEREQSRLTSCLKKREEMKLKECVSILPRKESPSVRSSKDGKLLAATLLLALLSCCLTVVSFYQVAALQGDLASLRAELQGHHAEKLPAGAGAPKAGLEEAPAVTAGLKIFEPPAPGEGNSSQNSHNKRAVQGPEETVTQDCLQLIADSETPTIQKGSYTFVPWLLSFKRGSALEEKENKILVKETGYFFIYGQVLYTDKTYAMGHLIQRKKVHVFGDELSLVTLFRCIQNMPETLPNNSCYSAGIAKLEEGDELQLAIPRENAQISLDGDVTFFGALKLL

B5 was tested. Which MFI did it give?
The MFI was 67.4 MFI.

For B6, which MFI is on record?
The MFI was 44 MFI.

B7 was tested. Which MFI did it give?
Its MFI is 107 MFI.

For B8, which MFI is on record?
The MFI was 51.6 MFI.

How did the MFI turn out when B9 was run?
Its MFI is 41.2 MFI.

How did the MFI turn out when B10 was run?
The MFI was 54.4 MFI.

Target: T3, human BLyS (full length, arginine to …)
Assay: flow cytometry, CHO-K1 hBLyS cells, antibody 66.7 nM

B5 was tested. Which MFI did it give?
Its MFI is 596 MFI.

Which MFI does the source give for B6 here?
The MFI was 525 MFI.

How did the MFI turn out when B7 was run?
Its MFI is 645 MFI.

Which MFI does the source give for B8 here?
The MFI was 697 MFI.

Which MFI does the source give for B9 here?
The MFI was 296 MFI.

With B10 as the molecule, how does the MFI read?
Its MFI is 550 MFI.

Target: T3, human BLyS (full length, arginine to …)
Assay: flow cytometry, CHO-K1 hBLyS cells, antibody 0 nM

With B5 as the molecule, how does the MFI read?
Its MFI is 152 MFI.

For B6, which MFI is on record?
Its MFI is 31.2 MFI.

How did the MFI turn out when B7 was run?
The MFI was 186 MFI.

With B8 as the molecule, how does the MFI read?
The MFI was 101 MFI.

How did the MFI turn out when B9 was run?
The MFI was 32.4 MFI.

Which MFI does the source give for B10 here?
Its MFI is 101 MFI.

Target: T2, cynomolgus BLyS (full length, arginine …)
Assay: flow cytometry, CHO-K1 cynoBLyS cells, antibody 0.0213 nM

How did the MFI turn out when B5 was run?
The MFI was 165 MFI.

How did the MFI turn out when B6 was run?
The MFI was 120 MFI.

How did the MFI turn out when B7 was run?
The MFI was 332 MFI.

B8 was tested. Which MFI did it give?
The MFI was 143 MFI.

B9 was tested. Which MFI did it give?
Its MFI is 108 MFI.

How did the MFI turn out when B10 was run?
The MFI was 135 MFI.

Target: T3, human BLyS (full length, arginine to …)
Assay: flow cytometry, CHO-K1 hBLyS cells, antibody 0.107 nM

For B5, which MFI is on record?
Its MFI is 282 MFI.

Which MFI does the source give for B6 here?
The MFI was 158 MFI.

For B7, which MFI is on record?
Its MFI is 403 MFI.

With B8 as the molecule, how does the MFI read?
The MFI was 226 MFI.

With B9 as the molecule, how does the MFI read?
Its MFI is 150 MFI.

Which MFI does the source give for B10 here?
Its MFI is 205 MFI.

Target: T2, cynomolgus BLyS (full length, arginine …)
Assay: flow cytometry, CHO-K1 cynoBLyS cells, antibody 0.00427 nM

Which MFI does the source give for B5 here?
Its MFI is 74.4 MFI.

How did the MFI turn out when B6 was run?
Its MFI is 44.3 MFI.

For B7, which MFI is on record?
The MFI was 176 MFI.

B8 was tested. Which MFI did it give?
The MFI was 63.5 MFI.

For B9, which MFI is on record?
Its MFI is 38.8 MFI.

For B10, which MFI is on record?
Its MFI is 66.7 MFI.

Target: T2, cynomolgus BLyS (full length, arginine …)
Assay: flow cytometry, CHO-K1 cynoBLyS cells, antibody 0 nM

Which MFI does the source give for B5 here?
The MFI was 19.8 MFI.

With B6 as the molecule, how does the MFI read?
Its MFI is 20 MFI.

B7 was tested. Which MFI did it give?
Its MFI is 21.2 MFI.

B8 was tested. Which MFI did it give?
The MFI was 20.6 MFI.

B9 was tested. Which MFI did it give?
Its MFI is 20.4 MFI.

With B10 as the molecule, how does the MFI read?
Its MFI is 21.2 MFI.

Target: T1, human APRIL protein
Assay: ELISA, coated APRIL; antibody 0.00427 nM
How it was run: as §1

With mIgG Control (antibody) as the molecule, how does the OD450 nm read?
Its OD450 nm is 0.0587.

Which OD450 nm does the source give for hIgG Control (antibody) here?
The OD450 nm was 0.0693.

For B1, which OD450 nm is on record?
Its OD450 nm is 0.0625.

With B2 as the molecule, how does the OD450 nm read?
Its OD450 nm is 0.161.

With B3 as the molecule, how does the OD450 nm read?
The OD450 nm was 0.0538.

B4 was tested. Which OD450 nm did it give?
Its OD450 nm is 0.121.

Target: T3, human BLyS (full length, arginine to …)
Assay: flow cytometry, CHO-K1 hBLyS cells, antibody 0.534 nM

Which MFI does the source give for B5 here?
The MFI was 504 MFI.

How did the MFI turn out when B6 was run?
Its MFI is 340 MFI.

For B7, which MFI is on record?
Its MFI is 591 MFI.

B8 was tested. Which MFI did it give?
The MFI was 469 MFI.

B9 was tested. Which MFI did it give?
The MFI was 247 MFI.

With B10 as the molecule, how does the MFI read?
Its MFI is 413 MFI.

Target: T3, human BLyS (full length, arginine to …)
Assay: flow cytometry, CHO-K1 hBLyS cells, antibody 0.0213 nM

B5 was tested. Which MFI did it give?
The MFI was 122 MFI.

Which MFI does the source give for B6 here?
The MFI was 69.8 MFI.

B7 was tested. Which MFI did it give?
Its MFI is 180 MFI.

B8 was tested. Which MFI did it give?
Its MFI is 93 MFI.

B9 was tested. Which MFI did it give?
Its MFI is 65.5 MFI.

For B10, which MFI is on record?
Its MFI is 89.5 MFI.

Target: T1, human APRIL protein
Assay: ELISA, coated APRIL; antibody 2.67 nM
How it was run: as §1

Which OD450 nm does the source give for mIgG Control (antibody) here?
Its OD450 nm is 0.0558.

With hIgG Control (antibody) as the molecule, how does the OD450 nm read?
The OD450 nm was 0.128.

B1 was tested. Which OD450 nm did it give?
Its OD450 nm is 0.0617.

For B2, which OD450 nm is on record?
The OD450 nm was 0.0751.

For B3, which OD450 nm is on record?
The OD450 nm was 0.0583.

For B4, which OD450 nm is on record?
Its OD450 nm is 0.102.
